# According to the nanobody polyreactivity screen of Harvey et al. (2022):
# Assay: yeast display, Sf9 membrane polyspecificity reagent, FACS + sequencing; frameworks hold sequencing errors
# Outline: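 A synthetic nanobody library was expressed on Saccharomyces cerevisiae BJ5465 by galactose induction for 36–48 hours. The library was stained for 1 hour at 4 °C with 10% biotinylated, detergent-solubilized Sf9 membrane reagent and enriched with streptavidin microbeads before FACS. Low and high (top ~1%) gates were set on anti-HA fluorescence for expression and streptavidin fluorescence for reagent binding, and each polyreactivity label reflects the gate of origin.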
row,Sequence,polyreactivity (PSR sort gate)
1,QDQLVESGGGLVQAGGTLRLSCAASGYTFDTYALGWYRQAPGKERELVAAISYTGGSTYYADSVKGRFTISRDNAKNTVYLQMNSLKPEDTAVYYCAADFNGYPGGDLYVGYDYWGLGTQVTVSS,low polyreactivity
2,QDQLVESGGGLVQAGRSLRLSCAASGRIFYYNAMGWYRQAPGKERELVAAISYTDDSTYADSVKGRFTISRDNAKNTVYLQLNSLKPEDTAVYYCAADAVAYIYGYDYDYWGQGTQVTVSS,low polyreactivity
3,QDQLVESGGGLVQAGVSLRISCAASGFTFRGNAMGWYRQAPGKERELVAAITSSDDSTYYADSVKGRFTNSRDNAKNTVYLQMNSLKPEDTAVYYCAAVANGYWTYEYWGQGTQVTVSS,low polyreactivity
4,QDQLVESGGGLVQAGVSLRLSCAASGLTFPQYVMGWYRQAPGKQRELDASISSSGGNTYYADSVKGRFTISRDNAKNTVYLQMISLKPEDTAVYYCAAEYIFHYYDIFDYWGQGTQVTVSS,high polyreactivity
5,QDQLVESGGGLVQARGRQRLSCAATGSTFYRNALGWYRQAPGKEREFVAAISFRGGGTYADSVKGRFTISRDNAKNTVYLQMNSLKPEDTAVYYFGADHLSYRRRYEYWGQGTQVTVSS,low polyreactivity
6,QDQLVESGGGLVQARGSLRLSCAASGRIIKTNAMGWYRQAPGKERELVAAISSSGGRTYYADSVKGRFTISRDNAKNTVYLQMNSLKPEDTAVYYCAAPSLVSFGYWGQGTQVTVSS,high polyreactivity
7,QDQLVESGGGLVQEGGSLRLSCAASGNIFNRYGMGWYRQAPGKEREFVAAISSGGGSTYYADSVKGRFTISRDNAKNTVYLQINRLKPEDTAVYYCAAGYSSLRRVGVYYWRQGTQVTVSS,high polyreactivity
8,QDQLVESGGGLVQEGGSLRLSCAASGSTFKNYALGWYRQAPGTERELVAASNVSRARTYYADSVKGRFTLSRDNAKNRVYFQMNSLIPEDTAFYYCAAYYSGVGFDYWGQGTHVTVSS,high polyreactivity
9,QDQLVESGGGLVQEGGSLRLSCAAYGSIYRYAMGWNRPAPGKERELVAAINFNGGRTYYADSVNGRFTISRDNAKNTVYLQMTSLKPEDTAVYYCAARISVYSTLPNDFDYWGQGTQVTVSS,high polyreactivity
10,QDQLVESGGRIVQAGGSLRLSCASSGRTFYTYAMGWYRKAPGKERELVAAISSSGSTYYADSVKGRFTISRDNAKNTVYLQMNSLKPEDTALYDCNARTSRYRRGGDSWGQGTQVTVSS,high polyreactivity
11,QDQLVESGGRLVQAGGSLRLSCAASGRIFSSYALGWYRQAPGKERELVAAIRSSGDRTYYADSVKGRFTISRDNAKITVYLQMNILKPEETAVYFCASRTYLYFGRYDYWGQGTQVTVSS,high polyreactivity
12,QDQLVESGGVLVQAGGSLRLSCAASGFIFNRYAMGWYRQAPWKERELVAANTRTGSTNYADSVKGRFTISRYNAKYTVYLQMSCLKPEDTAVFYCAAVYLSLGRPYYTFEYWGQGTQVTVSS,high polyreactivity
13,QDQLVESGGVLVQAGGSLRLSCADSGFSFANYVMGWYRQAPGKERELFAAITTPGGSTSYADSVKGRFTISRDNAKTNVYLQMPSLKPEDTAVYFCKKTTYYPSDYDYWGQGTQVTVSS,low polyreactivity
14,QDQLVESGRGLVQAGGSLRLSCAASGRTFALNVMGWYRQAPGKERELVAAISRSGGSTYFADSVKGRFTISRDNAKNTVYIQMNSLKPEDTAVYSCAAATHYQSYKRRDYWGQGTQVTVSS,high polyreactivity
15,QDQLVESGVGIVQAGGRLRLSCAASGRTFGRNAMGWYIQAPGKERELVATISRSGGSTNYADSVKGRFTISRDNAKNTVYLQMNSLKPEDTAVYYCAKARPFSYDYWGLGTQVTVSS,high polyreactivity
16,QDQLVESRGGLVQAGGSLRLRCAASGRIFTRYAMGWYRQAPRKERELVAAITYNGGSTYYADSVKGRFTISRDNAKNTVYLQMNSLKPEDTAVYYCNAVYMSWFGLYAGFDYWGQGTQVTVSS,high polyreactivity
17,QDQLVESRGGLVQAGGSLRLRCAASGSIFIGYAMGWYRQAPGKQRELVAAISGSGSSTYYADSVKGRFTISRDNAKNNDYLQMNILKPEDTAVYYCAAAPRFRGYDYCGQGTQVTVSS,high polyreactivity
